{
  "source": "patent US20220251241A1",
  "about": "(NGM BIOPHARMACEUTICALS, published 2022)",
  "binders": {"B1": {"name": "antibody hz24F7.v2 (antibody, human IgG1, kappa, N297G, V domains shown)", "VH": "QVQLVQSGAEVKKPGASVKVSCKASGYTFTDYEMHWVRQAPGQRLEWMGAIDPETGGTAYNQKFKGRVTITADKSASTAYMELSSLRSEDTAVYYCTREGYSYEGGGYYFDYWGQGTLVTVSS", "VL": "DIQMTQSPSSLSASVGDRVTITCSVSSSVSYMYWYQQKPGKAPKLLIYDTSNLASGVPSRFSGSGSGTDFTFTISSLQPEDIATYYCQQWSSYPTFGQGTKLEIKR", "notes": "also called humanized variant of 24F7"}},
  "key": {"[1]": {"biological_target": "endogenous HTRA1 protein in the serum of the animals dosed with hz24F7.v2 (PK serum samples) (cynomolgus monkey)", "assay": "cell-based or functional assay"}, "[2]": {"biological_target": "T1, human HTRA1 full length protein (HTRA1-FL) (human, UniProt Q92743 23-480)", "T1 construct": "also called human HTRA1-FL", "T1 sequence (Q92743 23-480)": "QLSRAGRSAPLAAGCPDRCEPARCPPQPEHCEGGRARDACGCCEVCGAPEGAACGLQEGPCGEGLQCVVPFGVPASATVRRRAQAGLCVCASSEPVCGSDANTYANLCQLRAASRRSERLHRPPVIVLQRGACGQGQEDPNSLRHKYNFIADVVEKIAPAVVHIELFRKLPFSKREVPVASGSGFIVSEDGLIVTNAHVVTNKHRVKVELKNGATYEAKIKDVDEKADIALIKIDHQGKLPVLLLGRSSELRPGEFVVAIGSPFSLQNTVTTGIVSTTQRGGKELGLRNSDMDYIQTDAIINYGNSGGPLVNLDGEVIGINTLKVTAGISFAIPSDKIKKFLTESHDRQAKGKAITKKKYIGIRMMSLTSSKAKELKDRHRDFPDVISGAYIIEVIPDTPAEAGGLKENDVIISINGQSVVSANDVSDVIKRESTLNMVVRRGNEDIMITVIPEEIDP", "assay": "SPR (Biacore), 25° C."}, "[3]": {"biological_target": "T2, HTRA1-catalytic domain (HTRA1-CAT; amino acids 156-364 of SEQ ID NO:1) (human, UniProt Q92743 156-364)", "T2 construct": "Wild-type catalytic domain construct; also called HTRA1 catalytic domain protein", "T2 sequence (Q92743 156-364)": "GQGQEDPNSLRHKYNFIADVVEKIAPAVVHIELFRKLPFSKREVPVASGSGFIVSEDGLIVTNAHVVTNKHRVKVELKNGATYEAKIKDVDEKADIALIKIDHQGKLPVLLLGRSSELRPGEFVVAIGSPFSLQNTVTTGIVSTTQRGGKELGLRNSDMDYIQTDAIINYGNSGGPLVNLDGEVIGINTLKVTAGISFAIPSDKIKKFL", "assay": "SPR (Biacore), 25° C."}, "[4]": {"biological_target": "T1, human HTRA1 full length protein …", "assay": "SPR (Biacore), 37° C.", "experimental": "(§1) The binding affinities of anti-HTRA1 antibodies to human HTRA1 were measured using a Biacore system (GE Healthcare Life Sciences). Briefly, anti-Fc antibody (Sigma-Aldrich) was immobilized on all four flow cells of a CMS chip using amine coupling reagents (GE Healthcare LifeSciences). Antibodies were captured on flow cells 2, 3, and 4 using flow cell 1 as a reference. Concentrations ranging from 3.3-10 nM of human delta N-HTRA1 were injected at a flow rate of 50 μL/min at 37° C. Kinetic data were collected over time and fit using the simultaneous global fit equation to yield affinity constants (KD values) for each antibody.\n(§2) The binding affinity of hz24F7.v2 to a HTRA1 full length protein (HTRA1-FL) or a HTRA1-CAT was determined using a Biacore system as described herein and compared with the binding affinity of the parental 24F7 antibody (see Table 9)."}, "[5]": {"biological_target": "T2, HTRA1-catalytic domain (HTRA1-CAT; …)", "assay": "SPR (Biacore), 37° C.", "experimental": "as §1, §2"}, "[6]": {"biological_target": "T3, HTRA1 (construct not given) (Homo sapiens (Human), UniProt Q92743 23-480, limits assumed)", "T3 sequence (Q92743 23-480 limits assumed)": "as the sequence (Q92743 23-480) above", "assay": "cell-based or functional assay"}, "[7]": {"biological_target": "T3, HTRA1 (construct not stated in the …)", "assay": "cell-based or functional assay", "remark": "listed apart in the source"}, "[8]": {"biological_target": "T3, HTRA1 (construct not stated in the …)", "assay": "cell-based or functional assay", "remark": "listed apart in the source"}, "[9]": {"biological_target": "T3, HTRA1 (construct not stated in the …)", "assay": "cell-based or functional assay", "remark": "listed apart in the source"}, "[10]": {"biological_target": "T3, HTRA1 (construct not stated in the …)", "assay": "SPR (Biacore); affinity at baseline"}, "[11]": {"biological_target": "T2, HTRA1-catalytic domain (HTRA1-CAT; …)", "assay": "SPR (Biacore), 37° C.; * = Limit of Detection", "experimental": "as §1, §2"}, "[12]": {"biological_target": "T2, HTRA1-catalytic domain (HTRA1-CAT; …)", "assay": "SPR (Biacore), 25° C.; kon at the limit of detection"}, "[13]": {"biological_target": "T2, HTRA1-catalytic domain (HTRA1-CAT; …)", "assay": "SPR (Biacore), 37° C.; kon at the limit of detection", "experimental": "as §1, §2"}, "[14]": {"biological_target": "T3, HTRA1 (construct not stated in the …)", "assay": "protease inhibition assay, casein substrate; apparent Ki (Ki^app)", "source_text": "Two enzymatic assays were used to characterize HTRA1 protease activity and evaluate inhibitory activity of anti-HTRA1 antibodies. EnzChek® Protease Assay Kit (ThermoFisher Scientific) was used following the manufacturer's instructions. This kit contains casein protein that is heavily labeled with the pH-insensitive green-fluorescent BOPIPY® FL dye that results in almost total quenching of the conjugate's fluorescence. Protease-catalyzed hydrolysis of labeled casein releases highly fluorescent BODIPY® FL dye-labeled peptides. The concomitant increase in fluorescence is proportional to protease activity.\nTo confirm that the humanized version of antibody 24F7 retained the ability to inhibit H IRA1 protease activity, hz24F7.v2 was assessed in casein and H2-Opt assays as described herein."}, "[15]": {"biological_target": "T3, HTRA1 (construct not stated in the …)", "assay": "protease inhibition assay, H2-Opt peptide substrate; apparent Ki (Ki^app)"}, "[16]": {"biological_target": "T3, HTRA1 (construct not stated in the …)", "assay": "SPR (Biacore), 25° C.; antibody captured; sample stored 0 weeks at pH 7.4, 40° C.", "experimental": "(§3) The binding affinities of anti-HTRA1 antibodies to human HTRA1 were measured using a Biacore system (GE Healthcare Life Sciences). Briefly, anti-Fc antibody (Sigma-Aldrich) was immobilized on all four flow cells of a CMS chip using amine coupling reagents (GE Healthcare LifeSciences). Antibodies were captured on flow cells 2, 3, and 4 using flow cell 1 as a reference. […] Kinetic data were collected over time and fit using the simultaneous global fit equation to yield affinity constants (KD values) for each antibody. […]"}, "[17]": {"biological_target": "T3, HTRA1 (construct not stated in the …)", "assay": "SPR (Biacore), 25° C.; antibody captured; sample stored 2 weeks at pH 7.4, 40° C.", "experimental": "as §3"}, "[18]": {"biological_target": "T3, HTRA1 (construct not stated in the …)", "assay": "SPR (Biacore), 25° C.; antibody captured; sample stored 4 weeks at pH 7.4, 40° C.", "experimental": "as §3"}, "[19]": {"biological_target": "T3, HTRA1 (construct not stated in the …)", "assay": "SPR (Biacore), 25° C.; antibody captured; sample stored 8 weeks at pH 7.4, 40° C.", "experimental": "as §3"}, "[20]": {"biological_target": "T2, HTRA1-catalytic domain (HTRA1-CAT; …)", "assay": "SPR (Biacore), 25° C.; * = Limit of Detection; 25° C.; HTRA1-CAT; kon at limit of detection"}},
  "data": [
    {"binder": "B1", "values": [
      {"measurement": "amount of HTRA1 protein in PK serum samples after IV dosing of hz24F7.v2", "setting": "[1]", "value": "~4", "unit": "fold"},
      {"measurement": "amount of HTRA1 protein in PK serum samples after IVT dosing of hz24F7.v2", "setting": "[1]", "value": "~2", "unit": "fold"},
      {"measurement": "Kd", "setting": "[2]", "value": 0.058, "unit": "nM"},
      {"measurement": "koff", "setting": "[2]", "value": "4.2e-05", "unit": "s⁻¹"},
      {"measurement": "kon", "setting": "[2]", "value": 710000, "unit": "M⁻¹ s⁻¹"},
      {"measurement": "koff", "setting": "[3]", "value": "5.6e-05", "unit": "s⁻¹"},
      {"measurement": "Kd", "setting": "[4]", "value": 0.093, "unit": "nM"},
      {"measurement": "koff", "setting": "[4]", "value": 0.00014, "unit": "s⁻¹"},
      {"measurement": "kon", "setting": "[4]", "value": "1.5e+06", "unit": "M⁻¹ s⁻¹"},
      {"measurement": "koff", "setting": "[5]", "value": 0.00017, "unit": "s⁻¹"},
      {"measurement": "IC50, Casein Assay", "setting": "[6]", "value": 0.29, "unit": "nM"},
      {"measurement": "IC50, H2-Opt Assay", "setting": "[6]", "value": 0.12, "unit": "nM"},
      {"measurement": "IC50 at baseline", "setting": "[7]", "value": 0.066, "unit": "nM"},
      {"measurement": "IC50, enzyme assay; hz24F7.v2 reference in the S91Y column", "setting": "[8]", "value": 0.0645, "unit": "nM"},
      {"measurement": "IC50, enzyme assay; hz24F7.v2 reference in the S92T column", "setting": "[8]", "value": 0.0645, "unit": "nM"},
      {"measurement": "IC50 (read off the curve), HTRA1 enzymatic assay, Hz24F7.v2 standard (dark squares)", "setting": "[9]", "value": "~0.1", "unit": "nM"},
      {"measurement": "Kd", "setting": "[10]", "value": 0.0176, "unit": "nM"},
      {"measurement": "koff", "setting": "[10]", "value": 0.000225, "unit": "s⁻¹"},
      {"measurement": "kon", "setting": "[10]", "value": "1.28e+07", "unit": "M⁻¹ s⁻¹"},
      {"measurement": "kon", "setting": "[11]", "value": "1.1e+07", "unit": "M⁻¹ s⁻¹"},
      {"measurement": "Kd", "setting": "[12]", "value": "< 0.1", "unit": "nM"},
      {"measurement": "Kd", "setting": "[13]", "value": "< 0.1", "unit": "nM"},
      {"measurement": "Ki", "setting": "[14]", "value": 0.086, "unit": "nM"},
      {"measurement": "Ki", "setting": "[15]", "value": 0.067, "unit": "nM"},
      {"measurement": "Kd", "setting": "[16]", "value": 0.213, "unit": "nM"},
      {"measurement": "koff", "setting": "[16]", "value": 0.000416, "unit": "s⁻¹"},
      {"measurement": "kon", "setting": "[16]", "value": "1.95e+06", "unit": "M⁻¹ s⁻¹"},
      {"measurement": "Kd", "setting": "[17]", "value": 0.178, "unit": "nM"},
      {"measurement": "koff", "setting": "[17]", "value": 0.000374, "unit": "s⁻¹"},
      {"measurement": "kon", "setting": "[17]", "value": "2.1e+06", "unit": "M⁻¹ s⁻¹"},
      {"measurement": "Kd", "setting": "[18]", "value": 0.144, "unit": "nM"},
      {"measurement": "koff", "setting": "[18]", "value": 0.000388, "unit": "s⁻¹"},
      {"measurement": "kon", "setting": "[18]", "value": "2.68e+06", "unit": "M⁻¹ s⁻¹"},
      {"measurement": "Kd", "setting": "[19]", "value": 0.167, "unit": "nM"},
      {"measurement": "koff", "setting": "[19]", "value": 0.000502, "unit": "s⁻¹"},
      {"measurement": "kon", "setting": "[19]", "value": "3.01e+06", "unit": "M⁻¹ s⁻¹"},
      {"measurement": "kon", "setting": "[20]", "value": "≥ 3.9e+06", "unit": "M⁻¹ s⁻¹"}
    ]}
  ]
}
